Experimental data reported in patent US20220185900A1 (Regeneron, published 2022).
Where a chain is given by its changes, count along the chain named. Numbers in names are those of the source.

T1: Macaca fascicularis (mf) RET.mmh (Macaca fascicularis)
T1 construct: also called monkey RET
T1 chain: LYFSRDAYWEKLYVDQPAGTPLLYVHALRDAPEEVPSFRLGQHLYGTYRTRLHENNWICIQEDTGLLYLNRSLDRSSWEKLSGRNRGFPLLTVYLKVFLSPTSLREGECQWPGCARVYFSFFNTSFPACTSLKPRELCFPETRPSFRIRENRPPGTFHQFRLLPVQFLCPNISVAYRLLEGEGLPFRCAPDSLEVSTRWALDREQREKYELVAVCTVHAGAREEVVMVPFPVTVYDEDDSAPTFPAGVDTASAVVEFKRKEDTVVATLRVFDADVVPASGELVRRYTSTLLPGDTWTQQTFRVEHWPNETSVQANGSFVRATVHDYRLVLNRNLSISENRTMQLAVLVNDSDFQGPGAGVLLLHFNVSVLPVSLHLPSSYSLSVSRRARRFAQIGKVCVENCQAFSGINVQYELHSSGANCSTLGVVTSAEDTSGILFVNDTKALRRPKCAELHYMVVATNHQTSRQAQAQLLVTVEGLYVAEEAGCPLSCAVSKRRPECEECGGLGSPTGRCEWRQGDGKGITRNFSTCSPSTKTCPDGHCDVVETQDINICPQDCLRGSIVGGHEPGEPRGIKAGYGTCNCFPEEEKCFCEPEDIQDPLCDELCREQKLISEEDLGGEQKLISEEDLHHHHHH

B1: H4H8056P (antibody, human IgG4, V domains shown)
VH: QVQLVESGGGVVQPGRSLRLSCAASGFTFRNYGMHWVRQAPGKGLEWVAVKRYDGSDEYFVDSVKGRFTISRDNSKNTLFLQMNSLRVDDTAVYYCARETPITGTTLDYWGQGTLVTVSS
VL: DIQMTQSPSSLSASVGDRVTITCRTSQSITNYLNWYQQKPGKAPKLLIYAASRSQSGVPSRFSGSGSGTDFTLTISSLQPEDFATYYCQQSYSTPLTFGGGTKVEIK
notes: human IgG4 Fc (H4H prefix)
B2: H4H8058P (antibody, human IgG4, V domains shown)
VH: QVQLVESGGGVGQPGRSLRLSCVASGFTFRNYGMHWVRQAPGKGLDWVAIIGYDGSKEYNVDSVKGRFTISRDNSKNTLYLQMNSLGAEDTAIYYCARESPITGTTFDYWGQGTLVTVSS
VL: B1 VL with S9P, T25A, T30G, L46I, S54L
notes: human IgG4 Fc (H4H prefix)
B3: H4H8060P (antibody, human IgG4, V domains shown)
VH: QVTLKESGPVLVKPTETLTLTCTVSGFSLSSARMGVSWIRQPPGKALEWLAHIFSTDEKSYSTSLKSRLSISKDTSLSQVVLIMTNMDPVDTATYYCARRTTMAPYYYYYGMDVWGHGTTVTVSS
VL: AIQMTQSPASLSASVGDRVTITCRASQGIRNDLGWYQQKPGKAPKLLISAASSLQSGVPSRFSGSGSGTDFTLTISSLQPEDFATYYCLQDYKYPWTFGQGTKVEIK
notes: human IgG4 Fc (H4H prefix)
B4: H4H8085P (antibody, human IgG4, V domains shown)
VH: QVQLVESGGGVVQPGRSLRLSCTASGFTFDNYGMHWVRQAPGKGLEWVAVISYDGSNTFYADSVKGRFTISRDNSKNALYLQMNSLRAEDTAVYYCAKDLEFDILIGYPFDSWGRGTLVTVSS
VL: DIQLTQSPSFLSASVGDRVTITCWASQDISRYLAWYQQKPGKAPNLLIYAASTLQSGVPSRFSGSGSGTEFTLTINSLQPEDFATYYCQQLFSYPRTFGQGTKVEIK
notes: human IgG4 Fc (H4H prefix)
B5: H4H8087P (antibody, human IgG4, V domains shown)
VH: QVQLVESGGGVVQPGRSLRLSCAASGFSFSSYGMHWVRQAPGKGLEWVAVMWYDGSNEYYADSVKGRFIISRDNSKSTLYLEMNSLRAEDTALYYCAREDWDEGYYYGMDVWGQGTTVTVSS
VL: DIQMTQSPSSLFASVGDRVTITCRASQDIRYDLGWYQQKPGKAPKRLIYASSILESGVPSRFSGSGSGTEYTLTISTLQSEDFAIYYCLQHNSFPWTFGQGTKVEIK
notes: human IgG4 Fc (H4H prefix)

What was measured:
[1] = target: T1, Macaca fascicularis (mf) RET.mmh; assay: SPR Biacore T200, mAb capture, 37 C
Procedure: (§1) Binding affinities and kinetic constants of human anti-RET antibodies were determined by surface plasmon resonance (Biacore T200) at […] (Tables 2-3). […] Binding equilibrium dissociation constants (KD) and dissociative half-lives (t_{1/2}) were calculated from the kinetic rate constants as: KD [M]=kd/kₐ; and t_{1/2}(min)=(ln2/(60*kd). Calculations were performed using BiacoreT200 evaluation software v1.0.

[2] = target: T2, hRET.mmh (human, UniProt P07949 29-635, biotinylated in the ELISA of Example 4 (biot-hRET.mmh); not in the SPR of Example 3); assay: SPR Biacore T200, mAb capture, 37 C
T2 construct: also called biot-hRET.mmh; soluble monomeric human RET
Procedure: as §1

[3] = target: T3, hRET.mFc (human); assay: SPR Biacore T200, mAb capture, 37 C
T3 construct: also called dimeric human RET
Procedure: as §1

[4] = target: T1, Macaca fascicularis (mf) RET.mmh; assay: SPR Biacore T200, mAb capture, 25 C
Procedure: as §1

[5] = target: T2, hRET.mmh; assay: SPR Biacore T200, mAb capture, 25 C
Procedure: as §1

[6] = target: T3, hRET.mFc; assay: SPR Biacore T200, mAb capture, 25 C
Procedure: as §1

[7] = target: T2, hRET.mmh; assay: competition sandwich ELISA: 1 nM biot-hRET.mmh + antibody, plate-coated GDNF/GFRα1 co-complex
Procedure: The ability of anti-RET antibodies to block the binding of human RET to pre-complexed plate bound GDNF:GFRα1 was assessed using a competition sandwich ELISA.
Antibody-RET mixtures were incubated for 1 hour at RT and then transferred to microtiter plates previously coated with the hGDNF/hGFRα1 co-complex. Binding was allowed to proceed for 1 hr at RT followed by extensive washing. […] Plates were read at 450 nm and data analysis used a sigmoidal dose-response model within Prism™ software.
The absorbance values of the wells containing the highest concentration for each antibody were used to determine the blocking percent at maximum concentration antibody tested.

Binder | Kd [1] [nM] | koff [1] [s⁻¹] | kon [1] [M⁻¹ s⁻¹] | t½ [1] [min] | Kd [2] [nM] | koff [2] [s⁻¹] | kon [2] [M⁻¹ s⁻¹] | t½ [2] [min] | Kd [3] [nM] | koff [3] [s⁻¹] | kon [3] [M⁻¹ s⁻¹] | t½ [3] [min] | Kd [4] [nM] | koff [4] [s⁻¹] | kon [4] [M⁻¹ s⁻¹] | t½ [4] [min] | Kd [5] [nM] | koff [5] [s⁻¹] | kon [5] [M⁻¹ s⁻¹] | t½ [5] [min] | further results
B1 | 10.3 | 0.00313 | 303000 | 4 | 8.88 | 0.00289 | 326000 | 4 | 5.62 | 0.00128 | 227000 | 9 | 2.69 | 0.000583 | 216000 | 20 | 2.56 | 0.000539 | 211000 | 21 | Kd [6]: 1.47 nM; koff [6]: 0.000272 s⁻¹; kon [6]: 185000 M⁻¹ s⁻¹; t½ [6]: 42 min; % Max Blocking [7]: 73%
B2 | 4.16 | 0.00226 | 543000 | 5 | 4.18 | 0.00221 | 528000 | 5 | 2.18 | 0.00121 | 552000 | 10 | 2.35 | 0.00054 | 230000 | 21 | 2.09 | 0.000518 | 248000 | 22 | Kd [6]: 1.1 nM; koff [6]: 0.000259 s⁻¹; kon [6]: 236000 M⁻¹ s⁻¹; t½ [6]: 45 min; % Max Blocking [7]: 93%; IC50 [7]: 0.25 nM
B3 | 1.88 | 0.00209 | 1.12e+06 | 6 | 1.41 | 0.00157 | 1.11e+06 | 7 | 0.558 | 0.000592 | 1.06e+06 | 19 | 0.523 | 0.000393 | 751000 | 29 | 0.409 | 0.000311 | 761000 | 37 | Kd [6]: 0.179 nM; koff [6]: 0.000149 s⁻¹; kon [6]: 827000 M⁻¹ s⁻¹; t½ [6]: 78 min; % Max Blocking [7]: 95%; IC50 [7]: < 0.25 nM
B4 | 8.3 | 0.00126 | 152000 | 9 | 6.23 | 0.000897 | 144000 | 13 | 5.5 | 0.00055 | 99000 | 21 | 3.4 | 0.000225 | 66000 | 51 | 2.34 | 0.000187 | 80100 | 62 | Kd [6]: 1.33 nM; koff [6]: 0.000125 s⁻¹; kon [6]: 94000 M⁻¹ s⁻¹; t½ [6]: 92 min; % Max Blocking [7]: 96%; IC50 [7]: < 0.25 nM
B5 | 1.57 | 0.00131 | 836000 | 9 | 0.968 | 0.00123 | 1.27e+06 | 9 | 0.349 | 0.000441 | 1.26e+06 | 26 | 0.424 | 0.000272 | 641000 | 42 | 0.27 | 0.000242 | 896000 | 48 | Kd [6]: 0.087 nM; koff [6]: 0.000107 s⁻¹; kon [6]: 1.22e+06 M⁻¹ s⁻¹; t½ [6]: 108 min; % Max Blocking [7]: 92%; IC50 [7]: < 0.25 nM
